Data from US20230301926A1 (EVOX THERAPEUTICS, published 2023).

B1: mCD63-ABD 2nd loop-NanoLuc (other)
chain: MAVEGGMKCVKFLLYVLLLAFCACAVGLIAIGVAVQVVLKQAMHITHETTAGSLLPVVIIAVGAFLFLVAFVGCCGACKENYCLMITFAIFLSLIMLVEVAVAIAGYVFRDQVKSEFNKSFQQQMQNYLKDNKTATILDKLQKENNCCGATRRTQHDEAVDANSLAEAKVLANRELDKYGVSDFYKRLINKAKTVEGVEALKLHILAALPRTCTSGTRSNYTDWENIPGMAKDRVPDSCCINITVGCGNDFKESTIHTQGCVETIAIWLRKNILLVAAAALGIAFVEVLGIIFSCCLVKSIRSGYEVMGSGSGSGSGSVFTLEDFVGDWRQTAGYNLDQVLEQGGVSSLFQNLGVSVTPIQRIVLSGENGLKIDIHVIIPYEGLSGDQMGQIEKIFKVVYPVDDHHFKVILHYGTLVIDGVTPNMIDYFGRPYEGIAVFDGKKITVTGTLWNGNKIIDERLINPDGSLLFRVTINGVTGWRLCERILAHHHHHH
notes: also called mCD63-ABD-2nd loop Nluc; mCD63-ABD 2nd loop-Nluc
B2: Lamp2b-ABD-NanoLuc (other)
chain: LKFEQHDEAVDANSLAEAKVLANRELDKYGVSDFYKRLINKAKTVEGVEALKLHILAALPFETGGAPMHISQAVHAAHAEINEAGRSIINFEKLCTSVYDFFVWLGRGHLLGRLAAIVGKQVLLGRKVVVVRSHCHWNDLAVIPAGVVHNWDFEPRKVSPSKPSFQEFVDWENVSPELNSTDQPFLCTGSGSGSGSGSLKPAGILIPIIVGAGLSGLIIVIVIAYVIGRRKSYAGAQTLGGGGSYIPEAPRDGQAYVRKDGEWVLLSTFLSPANGTPTPTPTPTGRSLYPSLEDLKVDKVIQAQTAFSANPANPAILSEASAPIPHDGNLYPRLYPELSQYMGLSLEGGQLGTPTPTPTPTGGSVFTLEDFVGDWRQTAGYNLDQVLEQGGVSSLFQNLGVSVTPIQRIVLSGENGLKIDIHVIIPYEGLSGDQMGQIEKIFKVVYPVDDHHFKVILHYGTLVIDGVTPNMIDYFGRPYEGIAVFDGKKITVTGTLWNGNKIIDERLINPDGSLLFRVTINGVTGWRLCERILA
notes: also called Lamp2B-ABD-Nluc; Lamp2b-ABD-Nluc
B3: mCD63-NanoLuc (other)
chain: MAVEGGMKCVKFLLYVLLLAFCACAVGLIAIGVAVQVVLKQAMHITHETTAGSLLPVVIIAVGAFLFLVAFVGCCGACKENYCLMITFAIFLSLIMLVEVAVAIAGYVFRDQVKSEFNKSFQQQMQNYLKDNKTATILDKLQKENNCCGATRSNYTDWENIPGMAKDRVPDSCCINITVGCGNDFKESTIHTQGCVETIAIWLRKNILLVAAAALGIAFVEVLGIIFSCCLVKSIRSGYEVMGSGSGSGSGSVFTLEDFVGDWRQTAGYNLDQVLEQGGVSSLFQNLGVSVTPIQRIVLSGENGLKIDIHVIIPYEGLSGDQMGQIEKIFKVVYPVDDHHFKVILHYGTLVIDGVTPNMIDYFGRPYEGIAVFDGKKITVTGTLWNGNKIIDERLINPDGSLLFRVTINGVTGWRLCERILAHHHHHH
notes: Control fusion of CD63 and nanoluc reporter lacking ABD, carried on EVs in the assays; His tag of the entry is called optional; also called mCD63-Nluc; control EVs
B4: hCD9-ABD-2x-Nluc (ABD present in both loops) (other)
chain: MPVKGGTKCIKYLLFGFNFIFWLAGIAVLAIGLWLRFDSQTKSIMHLAEAKVLANRELDKYGVSDFYKRLINKAKTVEGVEALKLHILAALPMHFEQETNNNNSSFYTGVYILIGAGALMMLVGFLGCCGAVQESQCMLGLFFGFLLVIFAIEIAAAIWGYSHKDEVIKEVQEFYKDTYNKLKTKDEPQRETLKAIHYALNCCGLTRQHDEAVDANSLAEAKVLANRELDKYGVSDFYKRLINKAKTVEGVEALKLHILAALPTRAGGVEQFISDICPKKDVLETFTVKSCPDAIKEVFDNKFHIIGAVGIGIAVVMIFGMIFSMILCCAIRRNREMVGSVFTLEDFVGDWRQTAGYNLDQVLEQGGVSSLFQNLGVSVTPIQRIVLSGENGLKIDIHVIIPYEGLSGDQMGQIEKIFKVVYPVDDHHFKVILHYGTLVIDGVTPNMIDYFGRPYEGIAVFDGKKITVTGTLWNGNKIIDERLINPDGSLLFRVTINGVTGWRLCERILA
notes: also called hCD9-ABDX2-Nluc
B5: hCD9-ABD-2ndloop-Nluc (other)
chain: MPVKGGTKCIKYLLFGFNFIFWLAGIAVLAIGLWLRFDSQTKSIMHFEQETNNNNSSFYTGVYILIGAGALMMLVGFLGCCGAVQESQCMLGLFFGFLLVIFAIEIAAAIWGYSHKDEVIKEVQEFYKDTYNKLKTKDEPQRETLKAIHYALNCCGLTRQHDEAVDANSLAEAKVLANRELDKYGVSDFYKRLINKAKTVEGVEALKLHILAALPTRAGGVEQFISDICPKKDVLETFTVKSCPDAIKEVFDNKFHIIGAVGIGIAVVMIFGMIFSMILCCAIRRNREMVGSVFTLEDFVGDWRQTAGYNLDQVLEQGGVSSLFQNLGVSVTPIQRIVLSGENGLKIDIHVIIPYEGLSGDQMGQIEKIFKVVYPVDDHHFKVILHYGTLVIDGVTPNMIDYFGRPYEGIAVFDGKKITVTGTLWNGNKIIDERLINPDGSLLFRVTINGVTGWRLCERILA
notes: also called hCD9-ABD 2 nd-Nluc
B6: hCD81-ABD-2ndloop-Nluc (other)
chain: MGVEGCTKCIKYLLFVFNFVFWLAGGVILGVALWLRHDPQTTNLLYLEMHLGDKPAPNTFYVGIYILIAVGAVMMFVGFLGCYGAIQESQCLLGTFFTCLVILFACEVAAGIWGFVNKDQIAKDVKQFYDQALQQAVVDDDANNAKAVVKTFHETLDCCGSTRQHDEAVDANSLAEAKVLANRELDKYGVSDFYKRLINKAKTVEGVEALKLHILAALPTRSTLTALTTSVLKNNLCPSGSNIISNLFKEDCHQKIDDLFSGKLYLIGIAAIVVAVIMIFEMILSMVLCCGIRNSSVYGSVFTLEDFVGDWRQTAGYNLDQVLEQGGVSSLFQNLGVSVTPIQRIVLSGENGLKIDIHVIIPYEGLSGDQMGQIEKIFKVVYPVDDHHFKVILHYGTLVIDGVTPNMIDYFGRPYEGIAVFDGKKITVTGTLWNGNKIIDERLINPDGSLLFRVTINGVTGWRLCERILA
notes: also called hCD81-ABD 2 nd-Nluc
B7: hCD9-ABD-1stloop-Nluc (other)
chain: MPVKGGTKCIKYLLFGFNFIFWLAGIAVLAIGLWLRFDSQTKSIMHLAEAKVLANRELDKYGVSDFYKRLINKAKTVEGVEALKLHILAALPMHFEQETNNNNSSFYTGVYILIGAGALMMLVGFLGCCGAVQESQCMLGLFFGFLLVIFAIEIAAAIWGYSHKDEVIKEVQEFYKDTYNKLKTKDEPQRETLKAIHYALNCCGLTRAGGVEQFISDICPKKDVLETFTVKSCPDAIKEVFDNKFHIIGAVGIGIAVVMIFGMIFSMILCCAIRRNREMVGSVFTLEDFVGDWRQTAGYNLDQVLEQGGVSSLFQNLGVSVTPIQRIVLSGENGLKIDIHVIIPYEGLSGDQMGQIEKIFKVVYPVDDHHFKVILHYGTLVIDGVTPNMIDYFGRPYEGIAVFDGKKITVTGTLWNGNKIIDERLINPDGSLLFRVTINGVTGWRLCERILA
notes: also called hCD9-ABD 1 st-Nluc
B8: hCD81-ABD-2x-Nluc (ABD present in both loops) (other)
chain: MGVEGCTKCIKYLLFVFNFVFWLAGGVILGVALWLRHDPQTTNLLYLEMHLAEAKVLANRELDKYGVSDFYKRLINKAKTVEGVEALKLHILAALPMHLGDKPAPNTFYVGIYILIAVGAVMMFVGFLGCYGAIQESQCLLGTFFTCLVILFACEVAAGIWGFVNKDQIAKDVKQFYDQALQQAVVDDDANNAKAVVKTFHETLDCCGSTRQHDEAVDANSLAEAKVLANRELDKYGVSDFYKRLINKAKTVEGVEALKLHILAALPTRSTLTALTTSVLKNNLCPSGSNIISNLFKEDCHQKIDDLFSGKLYLIGIAAIVVAVIMIFEMILSMVLCCGIRNSSVYGSVFTLEDFVGDWRQTAGYNLDQVLEQGGVSSLFQNLGVSVTPIQRIVLSGENGLKIDIHVIIPYEGLSGDQMGQIEKIFKVVYPVDDHHFKVILHYGTLVIDGVTPNMIDYFGRPYEGIAVFDGKKITVTGTLWNGNKIIDERLINPDGSLLFRVTINGVTGWRLCERILA
notes: also called hCD81-ABDX2-Nluc
B9: hCD81-ABD-1stloop-Nluc (other)
chain: MGVEGCTKCIKYLLFVFNFVFWLAGGVILGVALWLRHDPQTTNLLYLEMHLAEAKVLANRELDKYGVSDFYKRLINKAKTVEGVEALKLHILAALPMHLGDKPAPNTFYVGIYILIAVGAVMMFVGFLGCYGAIQESQCLLGTFFTCLVILFACEVAAGIWGFVNKDQIAKDVKQFYDQALQQAVVDDDANNAKAVVKTFHETLDCCGSTRSTLTALTTSVLKNNLCPSGSNIISNLFKEDCHQKIDDLFSGKLYLIGIAAIVVAVIMIFEMILSMVLCCGIRNSSVYGSVFTLEDFVGDWRQTAGYNLDQVLEQGGVSSLFQNLGVSVTPIQRIVLSGENGLKIDIHVIIPYEGLSGDQMGQIEKIFKVVYPVDDHHFKVILHYGTLVIDGVTPNMIDYFGRPYEGIAVFDGKKITVTGTLWNGNKIIDERLINPDGSLLFRVTINGVTGWRLCERILA
notes: also called hCD81-ABD 1 st-Nluc

Key:
mouse serum albumin = molecular target: T1, mouse serum albumin (mouse, UniProt P07724 25-608); experiment: EVs recovered from mouse serum 10 min after injection, gradient separation and dot-blot with anti-mouse serum albumin antibody
T1 construct: Albumin picked up by the EVs in the circulation of the mice
Procedure: Mice were injected with mCD63-ABD-2nd loop Nluc HEK EVs or mCD63-Nluc (no ABD control). Serum was collected 10 minutes after injection and purified with size-exclusion columns (qEV) to isolate EVs. 2.5×10¹⁰ EVs were then incubated overnight at 4° C. with an antibody anti-mouse serum albumin (labelled with FITC) and a mix of tetraspanin antibodies (human specific CD9, CD63 and CD81, 1:100) labelled with Alexa Fluor 647. The next day, EVs were separated by Optiprep gradient ultracentrifugation and 300 µl fractions were collected, 100 µl from each fraction were used for DOTBLOT analysis and 50 µl from three subsequent fractions were pulled and used for imaging (widefield)

FITC-human albumin = molecular target: T2, FITC-human albumin (human, UniProt P02768 25-609, FITC label (site not stated)); experiment: in vitro albumin binding assay, protocol of Example 7
T2 construct: also called fluorescein isothiocyanate (FITC)-labeled albumin; FITC-albumin
T2 sequence (P02768 25-609 limits assumed): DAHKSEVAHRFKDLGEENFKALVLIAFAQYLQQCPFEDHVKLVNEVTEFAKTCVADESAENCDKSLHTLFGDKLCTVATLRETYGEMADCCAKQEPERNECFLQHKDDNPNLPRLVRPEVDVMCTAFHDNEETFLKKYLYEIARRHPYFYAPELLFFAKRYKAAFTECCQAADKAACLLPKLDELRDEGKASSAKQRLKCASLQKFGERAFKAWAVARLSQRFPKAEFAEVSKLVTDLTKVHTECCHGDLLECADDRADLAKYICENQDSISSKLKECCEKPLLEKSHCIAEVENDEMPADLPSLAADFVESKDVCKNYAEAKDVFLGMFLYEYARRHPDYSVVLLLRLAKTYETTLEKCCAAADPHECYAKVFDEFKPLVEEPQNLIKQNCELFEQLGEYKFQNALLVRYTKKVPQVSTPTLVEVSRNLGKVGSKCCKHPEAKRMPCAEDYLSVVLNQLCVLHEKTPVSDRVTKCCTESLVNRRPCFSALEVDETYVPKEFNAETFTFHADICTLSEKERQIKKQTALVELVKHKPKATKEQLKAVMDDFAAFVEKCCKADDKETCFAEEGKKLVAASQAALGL

[1] = molecular target: T3, human serum albumin (labelled with Alexa Fluor 488) (human, UniProt P02768 25-609, Alexa Fluor 488 label (site not stated)); experiment: Optiprep gradient and dot-blot of 4e10 HEK EVs incubated with 80 µg/ml Alexa Fluor 488 HSA
T3 construct: Used at 80 µg/ml in the Optiprep gradient / dot-blot assays; also called HSA
T3 sequence (P02768 25-609 limits assumed): as above
Procedure: This experiment was performed by incubating overnight at 4° C. 4e¹⁰ HEK EVs expressing the constructs detailed above with 80 µg/ml human serum albumin (labelled with Alexa Fluor 488) and a mix of tetraspanin antibody. The next day, EVs were separated by Optiprep gradient ultracentrifugation and 300 µl fractions were collected, 100 µl from each fraction were used for DOTBLOT analysis and 50 µl from three subsequent fractions were pulled and used for imaging (widefield and dSTORM) […] (CD9, CD63 and CD81, 1:100) labelled with Alexa […].

[2] = molecular target: T3, human serum albumin (labelled with …); experiment: Optiprep gradient ultracentrifugation and dot-blot of EVs incubated with Alexa Fluor 488 HSA
Procedure: Gradient separation was performed to assess the binding of albumin to EVs expressing ABD on the surface. The fusion constructs tested were: [0235] mCD63-Nluc (concentration: 1.37×10¹² particles/ml) [0236] mCD63-ABD-2nd loop Nluc (concentration: 6.5×10¹¹ particles/ml)
HEK EVs with albumin binding domain fused to different or both CD63 loops were incubated overnight at 4° C. 5 µl with 80 µg/ml human serum albumin (labelled with Alexa Fluor 488) and a mix of tetrspanin antibodies (CD9, CD63 and CD81, 1:100) labelled with Alexa Fluor 647. The next day, EVs were separated by Optiprep gradient ultracentrifugation and 300 µl fractions were collected, 100 µl from each fraction were used for DOTBLOT analysis and 50 µl from three subsequent fractions were pooled and used for imaging (widefield and dSTORM)

Row | Binder | binding result [1] | also measured
1 | B1 | – | binding result (mouse serum albumin): binds
2 | B2 | binds | binding result (FITC-human albumin): binds
3 | B3 | – | binding result [2]: no binding (tested: 80 µg/ml human serum albumin)
4 | B4 | binds | –
5 | B5 | binds | –
6 | B6 | binds | –
7 | B7 | binds | –
8 | B8 | binds | –
9 | B9 | binds | –
